Substrate: N[C@@H](Cc1c[nH]cn1)C(=O)O
Assay: purified protein
Type: biochemical, Thermoplasma acidophilum
Conditions: 37 °C, pH 7.4, buffer A, free enzyme

B1: TaHAL (Thermoplasma acidophilum histidine ammonia lyase) (Thermoplasma acidophilum DSM 1728) (protein)
chain: MIEIDGRSLRVEDVYAVAVEYDRVSISDDTLKAVEEKHEAFLKLINSGKTVYGVNTGFGSLLNVHIERDQEIELQKNLIRSHSSGVGDYLENRYVRAIMAVRLNSLAAGYSAVSADLLNMMVEMLNRDVIPAVPKYGSVGASGDLAPLAHIGLAMMGEGKAFFEGRLMDSARALEKAGLKPYQFKEKEGVALINGTSFMSGILSIAVMDAHDILENAIRSALLSFEALGGTSKAFTPWILGARPHLGQVAIGNRFREYLTGSDIVKRADSVKVQDAYTLRCIPQVYGSVADVIDYVENVLSVEINSATDNPLFNGEEVVSGGNFHGEPVALAADFLAIALTDLGNMVERRIARLVDTNLSGLPPFLTPDSGLNSGYMIPQYTAAALCNRNKVLAYPSSADTIPTSANQEDHVSMGATGSLKLLEIIDNVRYIIAIEYLLGSQALEFTDKGMSPSTRKIYEKIREKVEKLDHDRPPSFDIETIRKMMDKKEFISALP
notes: E. coli BL21(DE3), codon-optimized gene, pET28a; N-terminal His-SUMO tag cleaved with ULP1; ~55 kDa; homotetramer with MIO
- Km: 45 ± 20 µM
- kcat: 1.01 ± 0.08 s⁻¹
- kcat/Km: 22400 ± 4000 M⁻¹ s⁻¹

Reference: article PMC9555226, “Microreactor equipped with naturally acid-resistant histidine ammonia lyase from an extremophile” (Materials advances, 2022)
